# Reference: publication PMC5329690, “A Synthetic Strategy for Conjugation of Paromomycin to Cell-Penetrating Tat(48-60) for Delivery and Visualization into Leishmania Parasites” (International Journal of Peptides, 2017)
# Test system: Leishmania donovani promastigotes
# Test: Intracellular uptake by confocal fluorescence microscopy
# Type: cell-based
# Details: L. donovani promastigotes strain MHOM/SD/00/1S-2D, 2 × 10^7 cells/mL in HBSS-Glc; 9 μM conjugate, 4 h, 26°C; washed, DAPI 5 μg/mL, unfixed; confocal fluorescence λex 488 nm/λem 520 nm; representative of two other independent experiments
# Experimental: Leishmania donovani promastigotes (strain MHOM/SD/00/1S-2D) were resuspended in Hanks' medium supplemented with 10 mM D-glucose (HBSS-Glc) at 2 × 10^7 cells/mL. Afterwards, 9 μM Bodi Fluor 488-labeled PMM-Tat conjugate 6 was added to the parasite suspension and incubated for 4 h in HBSS-Glc. After incubation, non-incorporated 6 was removed by washing the cells with HBSS-Glc. Finally, cells were labeled with DAPI (5 μg/mL, 20 min) before their observation, unfixed, in a Leica TCS–SP2 ABOS confocal laser scanning microscope.
# Figure 3 Fluorescence of Leishmania donovani promastigotes incubated with Bodi Fluor 488-labeled PMM-Tat conjugate (9 μM, 4 h, 26°C) and stained with DAPI (5 μg/mL) immediately before observation, unfixed. Settings: conjugate (green, λex = 488 nm/λem = 520 nm); DAPI (blue, λex = 350 nm/λem = 460 nm). Bar = 20 μm. Experiment is representative of two other ones performed independently.
# 4. Parasite culture and confocal microscopy
# Leishmania donovani promastigotes (strain MHOM/SD/00/1S-2D) were resuspended in Hanks’ medium supplemented with 10 mM D-glucose (HBSS-Glc) at 2 × 10^7 cells/mL.
# Afterwards, 9 µM BodiFluor™ 488-labeled PMM-Tat conjugate was added to the parasite suspension and incubated for 4 h in HBSS-Glc. After incubation, non-incorporated conjugate was removed by washing the cells with HBSS-Glc. […]
substance,measurement,value
Bodi Fluor-O2Oc-Tat(48-60)-O2Oc-Asp(paromomycin)-amide [compound 6],intracellular uptake (internalization and cellular pattern),"can enter the parasite, with a diffuse pattern in all the cytoplasm"
